Laboratory results published in the RNAGym collection of RNA variant scans (doi:10.7554/elife.90254).

B1: OR4K15 (parent)
chain: GUUAACGGUCAUAGGCCAUGGAAACUAGGAGCACCAUUUCGCUGCCAGUGAAGAAAUGAACAAAGAAAAUCUGGGCCAGGCAGGCAUCAAAAGAAAUAGUCUUGCGCUCAACCAGAAAGUCUGUAAUCAUUUUAAGGGUA

Variants of: B1
Assay: self-cleavage, relative activity (ratio to wild type); higher = more cleavage; in vitro, sequencing; the parent is a self-cleaving ribozyme
In the case of A64U U120G, the self-cleavage is reported as 1.63. For U57C U108C, the self-cleavage was 0.01. With G14U A24G the self-cleavage was 1.23. A13G A125U showed a self-cleavage of 0.88. In the case of A52G U100G, the self-cleavage is reported as 1.16. For U49C A67G, the self-cleavage was 1.2. A5C U103C showed a self-cleavage of 1.39. For U72A C101A, the self-cleavage was 0.04. C46U A116G showed a self-cleavage of 1.37. With A69C A114G the self-cleavage was 0.21. With A54G A69G the self-cleavage was 1.1. Work on U100C A129G yielded a self-cleavage of 2.22. G74U A118G gave a self-cleavage of 0.1. C34A U57C showed a self-cleavage of 1.31. In the case of U57C A111U, the self-cleavage is reported as 0.08. Variant A47G A52U has a self-cleavage of 1.73. U38C A69U showed a self-cleavage of 0.9. U12A A52G showed a self-cleavage of 1.14. G50A U87A showed a self-cleavage of 1.75. C45U G119A gave a self-cleavage of 1.99. For U57A A82U, the self-cleavage was 0.31. Work on G31A U139C yielded a self-cleavage of 1.82. U12C A114U showed a self-cleavage of 0.14. U43C A125G gave a self-cleavage of 0.53. For A22U A51G, the self-cleavage was 1.63. Work on A18G U132G yielded a self-cleavage of 1.71. A69G C101U showed a self-cleavage of 0.26. A68G G106A gave a self-cleavage of 0.02. For U38C C77U, the self-cleavage was 2.04. For A5G A140U, the self-cleavage was 1.38. Variant C45U U120C has a self-cleavage of 1.06. A82U U133C showed a self-cleavage of 0.07. For A63C U132C, the self-cleavage was 2.13. For A51G A135U, the self-cleavage was 0.7. G14A A56G gave a self-cleavage of 1.1. In the case of A82G U127A, the self-cleavage is reported as 0.58. In the case of A5G U97C, the self-cleavage is reported as 1.25. With G7U A59G the self-cleavage was 0.98. In the case of A55G G74U, the self-cleavage is reported as 0.1. For A56G U120G, the self-cleavage was 1.98. With A116U A134U the self-cleavage was 0.33. Variant A111U A116G has a self-cleavage of 0.04. A68C A94G gave a self-cleavage of 1.69. A13U A52G showed a self-cleavage of 1.18. In the case of U49A U131C, the self-cleavage is reported as 1.01. C32U A95G gave a self-cleavage of 2.11. A23G G74A gave a self-cleavage of 0.14. A68U U120C gave a self-cleavage of 1.1. In the case of U9C A135G, the self-cleavage is reported as 1.5. A5U A24G showed a self-cleavage of 1.12. With A69G A94G the self-cleavage was 1.36. A59G A135U showed a self-cleavage of 1.55. Variant C76U A78C has a self-cleavage of 0.11. For A118G A126G, the self-cleavage was 0.83. U19A A89U gave a self-cleavage of 0.85. For A52U A110G, the self-cleavage was 0.19. In the case of C113G U131C, the self-cleavage is reported as 0. Work on A36G C71U yielded a self-cleavage of 0.31. Work on G20A A69G yielded a self-cleavage of 1. A69U U72C showed a self-cleavage of 0.36. For A59G G80U, the self-cleavage was 0.26. For C46U A114G, the self-cleavage was 0.49. A30G A54G showed a self-cleavage of 1.21. U108A U120A showed a self-cleavage of 0.02. Work on A13G U38A yielded a self-cleavage of 0.78. Variant U12A A60C has a self-cleavage of 1.18. With C45U U108A the self-cleavage was 0.01. In the case of C40A A66U, the self-cleavage is reported as 1.52. For G29U A59G, the self-cleavage was 1.31. Variant A66G G137A has a self-cleavage of 2.07. With C35A C61U the self-cleavage was 1.59. Variant U49C G137A has a self-cleavage of 1.95. A110G A125C gave a self-cleavage of 0.17. U43C U102A gave a self-cleavage of 1. In the case of A47U A68G, the self-cleavage is reported as 0.48. With A67G A90G the self-cleavage was 0.96. For U12C A91G, the self-cleavage was 0.8. With G29A U124A the self-cleavage was 0.77. For A82U A94U, the self-cleavage was 0.21. Work on A4G A118G yielded a self-cleavage of 1.01. In the case of C101U C105A, the self-cleavage is reported as 0.01. A135U G137U showed a self-cleavage of 1.68. With A4G U124C the self-cleavage was 0.5. In the case of G8A U133G, the self-cleavage is reported as 2.78. For U39C A60C, the self-cleavage was 2.05. In the case of C105U U108C, the self-cleavage is reported as 0.02. Variant A51U U57G has a self-cleavage of 0.64. G41A U87A gave a self-cleavage of 1.71. In the case of A13G A90U, the self-cleavage is reported as 0.25. For G75C A98G, the self-cleavage was 0.07. Variant A30C U38C has a self-cleavage of 1.02. In the case of A86U U100C, the self-cleavage is reported as 2.52. In the case of C45A A134G, the self-cleavage is reported as 1.72. Variant U72C G80A has a self-cleavage of 0.38. C45G U131C gave a self-cleavage of 0.41. A86G A98G gave a self-cleavage of 0.52. A52U A59G gave a self-cleavage of 1.48. For C85U A116U, the self-cleavage was 0.17. U70C C128U showed a self-cleavage of 0.31. Work on G7A A92G yielded a self-cleavage of 1.8. Variant A66G U127A has a self-cleavage of 2.35. C40U U57C gave a self-cleavage of 1.07. A60G G83A gave a self-cleavage of 1.3. A18G G53U showed a self-cleavage of 1.66. With C81U A96G the self-cleavage was 0.43. A67G C77U showed a self-cleavage of 1.03. For C71U U132C, the self-cleavage was 0.25. Work on A5U A95U yielded a self-cleavage of 1.76. With A22G U39C the self-cleavage was 1.67. Work on U37A A135U yielded a self-cleavage of 2.22. A36G U43G gave a self-cleavage of 1.28. In the case of A47G A66U, the self-cleavage is reported as 1.11. For G53U A69G, the self-cleavage was 0.57. A116G A125G showed a self-cleavage of 0.23. U43C U127C gave a self-cleavage of 0.89. Work on A52G A125G yielded a self-cleavage of 0.37. Variant A89U A98U has a self-cleavage of 1.41. A54U U131C gave a self-cleavage of 1.11. A18G U139A showed a self-cleavage of 1.83. Work on A55C A59U yielded a self-cleavage of 1.8. U9A G41A showed a self-cleavage of 1.34. In the case of U103C A114U, the self-cleavage is reported as 0.04. Work on U38C G75C yielded a self-cleavage of 0.14. In the case of U43C A55G, the self-cleavage is reported as 1.07. A62U A118U showed a self-cleavage of 0.82. In the case of A33G U39A, the self-cleavage is reported as 1.23. For U19A U127C, the self-cleavage was 0.92. For U39C U97A, the self-cleavage was 1.16. Variant U100C U108A has a self-cleavage of 0.02. A22C U70C showed a self-cleavage of 1.25. Variant A33U C34A has a self-cleavage of 1.81. A13G A135G showed a self-cleavage of 0.79. U39C A59U gave a self-cleavage of 1.98. With A54G A68U the self-cleavage was 1.91. For A125C A126G, the self-cleavage was 0.12. For A13G C77U, the self-cleavage was 1.1. In the case of A23G C32U, the self-cleavage is reported as 0.82. In the case of A86C U132C, the self-cleavage is reported as 0.9. In the case of A33G C34A, the self-cleavage is reported as 1.19. For A114G A117G, the self-cleavage was 0.37. With G1A A59G the self-cleavage was 1.36. U38C G93A showed a self-cleavage of 2.41. With U70C C109A the self-cleavage was 0.16. In the case of U9C A13U, the self-cleavage is reported as 1.22. Work on A56U A114G yielded a self-cleavage of 0.36. Work on A82G A91U yielded a self-cleavage of 0.59. In the case of G21A U70C, the self-cleavage is reported as 1.39. Variant U26C A56G has a self-cleavage of 1.43. For A24U A27U, the self-cleavage was 1.14. For G44A C77U, the self-cleavage was 2.17. U12C U122C showed a self-cleavage of 1.05. Work on A59U A96G yielded a self-cleavage of 1.87. A63G A68C showed a self-cleavage of 2.21. U19C U108C showed a self-cleavage of 0.02. G80A A135G showed a self-cleavage of 0.31. U2C A56G gave a self-cleavage of 1.12. A23G C61U showed a self-cleavage of 1.24. Variant A67G A91G has a self-cleavage of 1.07. With U124A U132C the self-cleavage was 0.13. With A30G G75C the self-cleavage was 0.19. A62G A89G gave a self-cleavage of 0.94. Variant U39A U87C has a self-cleavage of 1.53. A18G A22U gave a self-cleavage of 1.95. Work on G31U A129G yielded a self-cleavage of 1.78. For A23U G41C, the self-cleavage was 2.09. U97C U108A gave a self-cleavage of 0. In the case of C25U U102A, the self-cleavage is reported as 0.79.
